Values quoted from earlier work, collected in paper PMC10092198.

Target: C3b (mC3b) C3b (Mus musculus) (UniProt P01027)
Sequence of UniProt P01027 (P01027 566-669): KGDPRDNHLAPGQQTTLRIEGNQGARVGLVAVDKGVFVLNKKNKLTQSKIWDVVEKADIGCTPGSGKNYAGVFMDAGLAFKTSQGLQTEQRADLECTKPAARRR

Kd: 1000 nM
Substance: Factor H (mFH) (from UniProt P06909)
